The values below come from patent US20180353525A1.

The test concerns the target receptor for activated C kinase (RACK1), endogenous, HT-1080 cells (human) (UniProt P63244). The test is described as follows: cell-based or functional assay.

NHE6^527-588 peptide (pcDNA3-HA/NHE6^527-588), sequence (Q92581 559-620): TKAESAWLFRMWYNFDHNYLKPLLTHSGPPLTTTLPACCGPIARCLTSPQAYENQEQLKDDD

“NHE6^527-588 peptide (pcDNA3-HA/NHE6^527-588)” gave a Fold (doxorubicin IC50 at 1% O2 against 21% O2) of 1.6 fold; an IC50 of doxorubicin, HT-1080 overexpressing the peptide, MTT viability, 1% O2 of 224 nM; an IC50 of doxorubicin, HT-1080 overexpressing the peptide, MTT viability, 21% O2 of 137 nM; an increase in drug sensitivity to Dox in cells exposed to hypoxia of 2.8 fold.
